Ends that are not written are not given here.
Biological target: concanavalin A (Canavalia ensiformis, UniProt P02866)
Assay: ITC

Sequence of concanavalin A (P02866 whole entry, looked up): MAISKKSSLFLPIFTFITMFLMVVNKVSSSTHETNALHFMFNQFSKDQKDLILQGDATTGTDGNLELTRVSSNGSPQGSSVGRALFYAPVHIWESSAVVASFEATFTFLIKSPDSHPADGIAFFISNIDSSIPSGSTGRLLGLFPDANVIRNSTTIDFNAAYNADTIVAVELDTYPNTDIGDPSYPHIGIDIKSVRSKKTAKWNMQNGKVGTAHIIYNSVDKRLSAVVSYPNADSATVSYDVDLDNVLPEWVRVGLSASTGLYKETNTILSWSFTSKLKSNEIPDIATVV

Binder | Kd
Man-WYDLF [Man-WYDLF (L37)] | 4.6 µM
Man-WYDLFDNINS [Man-WYDLFDNINS (L30)] | 4.3 µM

From article PMC5553193 (2015)
